Laboratory results from FireProtDB (doi:10.1002/pro.164).

B1: R28A, Q6T418 (parent)
chain: MERKTFSFLFLLLLVLASDVAVERGEARTCMIKKEGWGKCLIDTTCAHSCKNRGYIGGNCKGMTRTCYCLVNC

Variants of: B1
Settings: Vigna radiata; pH 7; 37 °C; GdnHCl; Fluorescence; Tris-HCl 10 mM; NaCl 100 mM; structure 1TI5; whole UniProt chain shown

Variant	denaturant midpoint (higher = more stable) [M]
R28A	3.29
C30A C73A	2.69
M31A	3.66
I32A	2.93
K33A	2.57
K34A	2.53
G36A	3.27
G38A	4.66
K39A	2.48
I42A	3.87
D43A	2.96
T44A	3.32
T45A	4.5
H48A	4.33
S49A	2.84
K51A	2.81

Variant	denaturant midpoint (higher = more stable) [M]
N52A	3.49
R53A	2.76
Y55A	3.1
I56A	3.32
G57A	3.26
N59A	2.64
K61A	3.31
G62A	3.44
M63A	3.88
T64A	2.98
R65A	2.97
T66A	3.32
Y68A	3.73
L70A	4.69
V71A	3.14
